# Results reported in the Immune Epitope Database (IEDB).
# Molecular target: HLA-A*02:01
# Experiment: IEDB peptide-MHC binding, purified MHC/competitive/radioactivity; ≥ and ≤ were set here for values at or beyond the usual limits of such assays
# Conditions: source organism: Influenza A virus
row,Sequence,IC50
1,RTMAWTVVNSI,650 nM
2,QIAILVTTV,1090 nM

# Same assay, conditions: source organism: Mammarenavirus brazilense
row,Sequence,IC50
1,FTTTLFLHLV,473 nM
2,QLIFFLTLA,122 nM
3,CMVNHSTYYV,73 nM

# Same assay, conditions: source organism: Mammarenavirus choriomeningitidis
row,Sequence,IC50
1,NISGYNFSL,642 nM

# Same assay, conditions: source organism: Mammarenavirus juninense
row,Sequence,IC50
1,ALVAVSLIAI,324 nM

# Same assay, conditions: source organism: Mammarenavirus lassaense
row,Sequence,IC50
1,FVFSTSFYLI,329 nM
2,FVFSTSFYL,2.5 nM
3,NLYDHALMSI,3.9 nM
4,ALMDCIMFDA,1.1 nM
5,RMAWGGSYIA,294 nM

# Same assay, conditions: source organism: Mammarenavirus machupoense
row,Sequence,IC50
1,DAMPGVLSYV,44 nM
2,VLSYVIGLL,210 nM
3,GLYMGNLSQL,72 nM
4,EALNIALVAV,341 nM
5,FTASLFLHLV,75 nM

# Same assay, conditions: source organism: Mammarenavirus whitewaterense
row,Sequence,IC50
1,FLKMRRIFGV,64 nM
2,YVNHTGFNV,478 nM
3,MIITAVNSL,2430 nM

# Same assay, conditions: source organism: Vaccinia virus WR
row,Sequence,IC50
1,ILSDDMLNI,7.6 nM
2,MMMMKWIISI,10 nM
3,FACLMFKHLL,1140 nM
4,ILMYPTTLL,7 nM
5,SMLIEVILTA,795 nM
6,ELKETLLHV,4330 nM
7,SVSESNIDL,569 nM
8,KANCTAESST,2760 nM
9,ETYHLIDYET,3180 nM
10,MTLSCNGET,1940 nM
11,SMIGLCACV,2 nM
12,YQMLLALVAL,1.5 nM
13,EAAITDAAV,2320 nM
14,FVFRSPFIV,4.6 nM
15,CIDGKWNPVL,1860 nM
16,TAIFTDASTV,4460 nM
17,KLTDSLSSQM,935 nM
18,FLVGVAIILV,7.6 nM
19,LTVLGLGLSL,1930 nM
20,SLTNEIYASI,161 nM
21,MIDDSIEGI,210 nM
22,FMYFCEQKL,1.9 nM
23,YLVPNVIGGV,0.61 nM
24,ILMIFISSFL,22 nM
25,NIYLNFPWL,1210 nM

row,Sequence,IC50
1,YANNDKFRL,587 nM
2,YIDAYVSRL,1.9 nM
3,LLIHFLLSL,17 nM
4,FIDSNEYEV,0.98 nM
5,LMYDIINSV,1.8 nM
6,MQRIISLSV,454 nM
7,VMVTITQNV,37 nM
8,IILLFDFSI,162 nM
9,YISELYNKPL,626 nM
10,VLPNKVRIFI,1310 nM
11,NVDNLIMIV,170 nM
12,AAMYQYIFL,686 nM
13,YIFAALGGSV,45 nM
14,YLYALYSPL,0.13 nM
15,SIINRDIIV,699 nM
16,VVYSTCTVPT,2320 nM
17,KLVSISNFI,6.3 nM
18,RIIDSEVVV,94 nM
19,SVEKIADDRI,3830 nM
20,SLQTCAGVI,2850 nM
21,LLYLILFLL,2200 nM
22,NLLSKNTFYL,1.4 nM
23,YMDLSYHGVT,85 nM
24,SLHSLSVETI,95 nM
25,KVYDKLFPV,0.34 nM

row,Sequence,IC50
1,HLNPSRIRI,956 nM
2,GLCIRISMV,216 nM
3,SMITMSAFLI,59 nM
4,LTIMGVIFLI,9.4 nM
5,HLPTMYDGL,1090 nM
6,FAAELTIGV,0.32 nM
7,PITDSLSFKL,2660 nM
8,SILISLTNEI,283 nM
9,PAVVYSTCTV,2310 nM
10,HLGYIIRYPV,12 nM
11,IVISPMGKL,896 nM
12,IMFKDDNIIM,141 nM
13,FLFYPSMFTL,0.23 nM
14,QLVDAIDNI,154 nM
15,YLFNAIETM,1.5 nM
16,IMYTYFSNT,57 nM
17,MLLHVGIPL,1.4 nM
18,YIIDWMVDI,0.92 nM
19,CLCSFHNDAI,2880 nM
20,VLAIDFGNGA,1440 nM
21,YTALHYYYL,17 nM
22,VLDTTLYAV,0.6 nM
23,RTLDTAIFT,3430 nM
24,FLHTTFIDV,0.46 nM
25,YVSTGESSIL,1360 nM

row,Sequence,IC50
1,RQIFIHYSV,0.65 nM
2,YAYGWIPET,43 nM
3,VLNIVLFIL,393 nM
4,ILVCYILYI,19 nM
5,KLNGAMVEYV,6.1 nM
6,HQWDIDSAI,1010 nM
7,FVNKHLPTM,1590 nM
8,GLDLENLYAV,3.5 nM
9,TMVDKPTEL,185 nM
10,VVTLLCVLPA,262 nM
11,ELYNKPLYEV,0.79 nM
12,QLVDAIDNIV,101 nM
13,FLICHNLRA,17 nM
14,RVQSFKINI,769 nM
15,SLEATYHIII,4980 nM
16,ILQYDLWNV,0.17 nM
17,KTSTLIFFV,1 nM
18,TMLSIILVII,154 nM
19,LMMSCISCI,12 nM
20,YTYFSNTILL,189 nM
21,SQSERDNYI,1190 nM
22,IVSKLTFLDV,85 nM
23,LLMMTLPSI,0.11 nM
24,VLSNTSTAV,16 nM
25,TLYDFDYYII,5.8 nM

row,Sequence,IC50
1,LTIMGVIFL,608 nM
2,YMDLSYHGV,1.1 nM
3,IVMDNDDNIL,883 nM
4,DVVILLLSSV,907 nM
5,ILSLFLISLV,2.9 nM
6,VLEYIYGGKT,1440 nM
7,KLQAAPYIV,1.2 nM
8,TVMNNLSEL,533 nM
9,ILSPPINAPI,38 nM
10,KLSCAVHLI,3.2 nM
11,LIMYSVIGV,0.55 nM
12,PLYEVNSTMT,3420 nM
13,FVLVDNVDFA,75 nM
14,LMIFISSFLL,27 nM
15,ILQISQCQRI,2600 nM
16,FLEGALIANI,30 nM
17,YVMTMILFL,0.065 nM
18,NIVIFVKRL,1280 nM
19,KTFKDESIFI,93 nM
20,NIHSEMYSL,580 nM
21,KINPTLDNI,244 nM
22,SLLVIWILIV,1020 nM
23,YTINCLLYI,5.1 nM
24,SQMTSTFIM,85 nM
25,GIYHDDLVV,2830 nM

row,Sequence,IC50
1,FAALGGSVNI,3730 nM
2,IIFFIVLILL,201 nM
3,HMYFTFFDV,9.1 nM
4,FTSSFYNYV,0.46 nM
5,LLYILRYIV,138 nM
6,ILTAILFFM,35 nM
7,VTLLCVLPA,76 nM
8,SLSKQDISL,67 nM
9,YLFDYPHFEA,0.085 nM
10,SASVFYRGA,2050 nM
11,SLSSIRFHI,11 nM
12,LQYDLWNVV,22 nM
13,ILTREMGFLV,7 nM
14,YTYLIGEKI,5000 nM
15,FQYLLPGFVL,37 nM
16,KTISVVTLL,287 nM
17,GMANTTFHV,0.41 nM
18,SMDTLLFFL,1 nM
19,LLVAPMPTA,13 nM
20,RIDMIDNLNI,2550 nM
21,ALMAITKNV,8.4 nM
22,VLVDNVDFA,20 nM
23,KVTRFYFNM,95 nM
24,NVFKYLTSV,0.75 nM
25,FIALWIPDL,1.7 nM

row,Sequence,IC50
1,TLFLLFLEI,56 nM
2,YITALNHLVL,280 nM
3,DMMSLNLTIV,2850 nM
4,LMEVFPQLDL,244 nM
5,RLLDLFGPEV,0.98 nM
6,NLNIVRDML,2760 nM
7,YQDSDVSQEV,12 nM
8,YLKIGTLLV,17 nM
9,YLVSSLSEI,6.5 nM
10,RMILYLESV,1.8 nM
11,SMTENVEEDL,755 nM
12,HIFMASPENV,97 nM
13,NQLYLTVSFI,520 nM
14,VVMAYVGIKL,219 nM
15,MMCYFLTATL,18 nM
16,NLNIVRDMLV,28 nM
17,ALLVATDPDA,606 nM
18,VIDEILFKV,1.3 nM
19,STYWVIPWEL,76 nM
20,FTPRDNETV,877 nM
